# Biological target: T1, complex of detergent-solubilized, biotinylated NTCP and BLV (Homo sapiens NTCP; bulevirtide from …)
# T1 construct: also called NTCP-BLV complex; source: BLV: provided peptide; not shown: Avi-tag, C-terminal, kept; eYFP, C-terminal, cleaved; rho-1D4, C-terminal, cleaved
# Experiment: ELISA; multipoint ELISA at 4 C; 40 nM biotinylated NTCP immobilised on a neutravidin-coated plate in the presence of BLV, serial dilutions of purified Fab for 20 min, detection with HRP-conjugated protein L; EC50 from a sigmoidal dose-response fit; apparent
# Conditions: both partners purified
binder,measurement,value
"Fab3 (Fab, V domains shown, also called Fab specific to the NTCP-BLV complex) VH: EVQLVESGGGLVQPGGSLRLSCAASGFNVSSSYIHWVRQAPGKGLEWVASISPYYSYTSYADSVKGRFTISADTSKNTAYLQMNSLRAEDTAVYYCARYQYDYYYSYYAGLDYWGQGTLVTVSS VL: DIQMTQSPSSLSASVGDRVTITCRASQSVSSAVAWYQQKPGKAPKLLIYSASSLYSGVPSRFSGSRSGTDFTLTISSLQPEDFATYYCQQYRYSLITFGQGTKVEIK",Kd,8 nM
